Measurements published in patent US20250195685A1 (CAPSTAN THERAPEUTICS, published 2025).
Where two headings read alike, the source gives them in different places.

Assays:
[1] = molecular target: T1, rhesus macaque CD8 on expanded primary T cells (rhesus macaque); experiment: flow cytometry, Rhesus Expanded T cells Donor 9, gated on live CD8 T cells (via CD3+CD4-)
T1 construct: also called CD4- CD8+ rhesus T cells
Experimental: (§1) To obtain the results shown in FIG. 8A and FIG. 8B, 5×10⁴ expanded primary T cells (human, cynomolgus macaque or rhesus monkey) were thawed and transferred to a V bottom 96-well culture plate (Corning). Cells were washed twice with Cell Staining buffer (#420201, Biolegend). Each anti-CD8α antibody was diluted in four-fold antibody titration series from 60 μg/mL to 0.057 ng/mL into Cell Staining buffer. Cells were stained with each diluted antibody solution for 30 minutes on ice. Cells were then washed three times with Cell Staining buffer and primary antibody binding was detected by staining with anti-human Fc BV421 conjugate antibody (#410704, Biolegend) at 1:200 dilution for 30 minutes on ice. […] Flow cytometry data was analyzed by Flowjo 10 (Becton, Dickinson & Company) to measure the geometric median fluorescence intensity (gMFI) of the on-cell binding from each antibody. The gMFI values were normalized with the gMFI measured in the sample stained with only the secondary detection antibody and plotted against the concentration of the added antibodies. The binding curves were constructed using Graphpad Prism software, and EC₅₀ values were determined by non-linear curve fitting.

[2] = molecular target: T2, human CD8 on cells (CD8-overexpressing HEK293T cells, SupT1, HPB-ALL, human T cells, transfected HEK293 of … (human, UniProt P01732 22-235)); experiment: flow cytometry, Human Expanded T cells Donor 5, gated on live CD8 T cells (via CD3+CD4-)
T2 construct: whole, on cells; also called cell surface CD8
Experimental: as §1

[3] = molecular target: T2, human CD8 on cells (CD8-overexpressing …); experiment: as above; remark: listed apart in the source
Experimental: as §1

[4] = molecular target: T2, human CD8 on cells (CD8-overexpressing …); experiment: flow cytometry on CD8-overexpressing HEK293T cells, non-linear fit of normalized gMFI
[5] = molecular target: T3, human CD8αα homodimer, recombinant protein (Acro Biosystems) (human, UniProt P01732 22-182); experiment: BLI binding kinetic analysis, whole antibody, sample kept at pH 7.2, 4C (unstressed)
T3 construct: also called CD8αα antigen; biotinylated CD8α recombinant protein (CDA-H82E3)

[6] = molecular target: T2, human CD8 on cells (CD8-overexpressing …); experiment: flow cytometry, Human Expanded T cells Donor 6, gated on live CD8 T cells (via CD3+CD4-)
Experimental: as §1

[7] = molecular target: T1, rhesus macaque CD8 on expanded primary …; experiment: flow cytometry, Rhesus Expanded T cells Donor 9, gated on live CD8 T cells (via CD3+CD4-); remark: listed apart in the source
Experimental: as §1

[8] = molecular target: T2, human CD8 on cells (CD8-overexpressing …); experiment: flow cytometry, Human Expanded T cells Donor 5, gated on CD4- T cells, anti-human Fc BV421
Experimental: (§2) Binding was measured by fluorescence from the BV421 fluorophore-conjugated anti-human Fc secondary antibody that recognize the binders. The gMFI was normalized to the gMFI of the secondary antibody in the absence of the anti-CD8α binders.
as §1, with “Cells were stained with each diluted antibody solution for 30 minutes on ice.” left out

[9] = molecular target: T3, human CD8αα homodimer, recombinant …; experiment: BLI binding kinetic analysis, whole antibody, sample stressed at pH 8.5, 40 °C, 7 days
[10] = molecular target: T2, human CD8 on cells (CD8-overexpressing …); experiment: flow cytometry, Human Expanded T cells Donor 6, gated on CD4- T cells, anti-human Fc BV421
Experimental: as §2
as §1, with “Cells were stained with each diluted antibody solution for 30 minutes on ice.” left out

T3 sequence (P01732 22-182 limits assumed): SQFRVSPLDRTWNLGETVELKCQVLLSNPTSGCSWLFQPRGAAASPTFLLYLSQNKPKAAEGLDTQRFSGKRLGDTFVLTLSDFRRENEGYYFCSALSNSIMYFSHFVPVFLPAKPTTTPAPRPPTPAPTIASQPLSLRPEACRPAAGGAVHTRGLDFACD
T2 sequence (P01732 22-235): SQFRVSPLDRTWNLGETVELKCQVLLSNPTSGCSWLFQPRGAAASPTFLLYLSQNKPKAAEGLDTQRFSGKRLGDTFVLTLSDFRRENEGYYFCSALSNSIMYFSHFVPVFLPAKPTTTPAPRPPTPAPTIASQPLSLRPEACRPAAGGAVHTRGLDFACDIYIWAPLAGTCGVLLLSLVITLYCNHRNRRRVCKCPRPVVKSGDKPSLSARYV

| Binder | EC50 [1] | EC50 [2] | EC50 [3] | EC50 [4] | Kd [5] | koff [5] | kon [5] | EC50 [6] | EC50 [7] | EC50 (read off the curve) [8] | Kd [9] | koff [9] | kon [9] | EC50 (read off the curve) [10] |
| --- | --- | --- | --- | --- | --- | --- | --- | --- | --- | --- | --- | --- | --- | --- |
| CBD1017ch whole antibody (chimeric CT8 antibody) (antibody, V domains shown, Chimeric antibody comprising the variable regions of the donor antibody CT8; detected with anti-human Fc) VH: EVQLQQSGPELVKPGASVKISCKASRYTFTDYNLHWVKLSHEKSLEWIGFIYPYNGGTGYNQKFKNKAKLTVDYSSSTAYMELRSLTSVDAAVYYCARDHRYNEGVSFDYWGQGTTLTVSS VL: NIVLTQSPASLAVSLGQRATISCRASESVDGFGNSFMNWYQQKPGQSPKLLIYLASNLESGVPARFSGSGSRTDFTLTIDPVEADDAATYYCQQNNEDPYTFGGGTKLEIK | 0.045 µg/mL | 0.051 µg/mL | 0.349 nM | 2.75 nM | 0.43 nM | 0.000655 s⁻¹ | 1.53e+06 M⁻¹ s⁻¹ | 0.052 µg/mL | 0.308 nM | ~0.05 µg/mL | 0.55 nM | 0.000795 s⁻¹ | 1.45e+06 M⁻¹ s⁻¹ | ~0.05 µg/mL |
| CBD1033 whole antibody, human IgG1 with Fc-silencing mutations L234A, L235A and P329A (CBD1033-hIgG1-LALAPA) (antibody, V domains shown, On tLNPs the antibody was SATA-modified or AJICAP-thiolated (CBD1033.29) and conjugated to the LNP; also called CBD1033.3; CBD1033 IgG1) VH: QVQLVQSGAEVKKPGASVKVSCKASRYTFTDYNLHWVRQAPGQGLEWMGFIYPYNGGTGYAQKFQGRVTMTVDTSTSTAYMELSSLRSEDTAVYYCARDHRYNEGVSFDYWGQGTTVTVSS VL: DIQLTQSPSSLSASVGDRATITCRASESVDGFGNSFMNWYQQKPGKAPKLLIYLASNLESGVPSRFSGSGSGTDFTLTISSVQPEDFATYYCQQNNEDPYTFGQGTKLEIKR | 0.145 µg/mL | 0.094 µg/mL | 0.644 nM | 2.78 nM | 1.66 nM | 0.00308 s⁻¹ | 1.85e+06 M⁻¹ s⁻¹ | 0.112 µg/mL | 0.993 nM | ~0.1 µg/mL | 2.19 nM | 0.00309 s⁻¹ | 1.41e+06 M⁻¹ s⁻¹ | ~0.1 µg/mL |
